# B1: C-terminal domain of zebrafish MRAP2a, His-tagged (zCT-MRAP2a) (domain or fragment, UniProt F8W4H9 73-217, looked up)
# chain: EAAEPYEKRMRLTSCADGLGRQRETDGRTGLSRPLLEESRSLFHCYINEEEREGGRAATDAGALTHGRSGIGNSRGQVEEVGLVVQNMVLESRAEREAALLAHFNIPNFVNSELNSALGDEDLLLGDPPIIMEEARPRCTHHIID
# notes: zebrafish MRAP2a, C-terminal domain, the region from residue 73 to residue 217 encoded by the third exon; cloned by PCR from plasmid XM_021473026.1 into pet28; also called zCT-MRAP2a domain; pet 28zCT-MRAP2; source: E. coli, purified (His-tagged protein purification kit)
# How the values were obtained:
# [1] = molecular target: the molecule itself; experiment: native gel or EMSA; blue native PAGE, 20 ug purified CT-MRAP2 domain on Native PAGE Novex 3% to 16% Bis-Tris gels, 0 °C; blot with anti-His
# [2] = molecular target: the molecule itself; experiment: SDS-PAGE; purified zCT-MRAP2a, electrophoresis under denaturing conditions
protein,measurement,setting,value
B1,stoichiometry N,[1],~2
same,stoichiometry N,[2],2
